Experimental data published in publication PMC6555819, “Comprehensive study of nuclear receptor DNA binding provides a revised framework for understanding receptor specificity”.
Residue numbers refer to the chain shown, from its start.

B1: NRC3_wobSeed118_DR4_C7A_o1 (dsDNA)
DNA 1: GCTTACAAAGGTGAGCTGAGGTCGTTGATCCAACTCGCGATTGACAGCGTAGAATGAAGG
DNA 2: CCTTCATTCTACGCTGTCAATCGCGAGTTGGATCAACGACCTCAGCTCACCTTTGTAAGC
B2: NRC3_wobSeed120_DR4_A6C_o1 (dsDNA)
DNA 1: GCCCGCGTAGGTTACGAGGGGGCATTCAGTGCGAATGCGATTGACAGCGTAGAATGAAGG
DNA 2: CCTTCATTCTACGCTGTCAATCGCATTCGCACTGAATGCCCCCTCGTAACCTACGCGGGC
B3: NRC3_wobSeed120_DR4_G20T_o1 (dsDNA)
DNA 1: B2 DNA 1 with C6A, G20T
DNA 2: B2 DNA 2 with C41A, G55T
B4: NRC3_wobSeed9_DR0_T17G_o1 (dsDNA)
DNA 1: GCATCTCTAGGTAAAGGTCAGTGAAAGATCGATAGAGCGATTGACAGCGTAGAATGAAGG
DNA 2: CCTTCATTCTACGCTGTCAATCGCTCTATCGATCTTTCACTGACCTTTACCTAGAGATGC
B5: NRC3_wobSeed121_DR5_G21A_o1 (dsDNA)
DNA 1: GCCAAACTAGGTCACCGGAAAGTCAAAGTCCGCATGGCGATTGACAGCGTAGAATGAAGG
DNA 2: CCTTCATTCTACGCTGTCAATCGCCATGCGGACTTTGACTTTCCGGTGACCTAGTTTGGC
B6: NRC3_wobSeed137_DR5_T13A_o1 (dsDNA)
DNA 1: GCATATGTAGGTAACATCCGGGTCATTCAGGCTATGGCGATTGACAGCGTAGAATGAAGG
DNA 2: CCTTCATTCTACGCTGTCAATCGCCATAGCCTGAATGACCCGGATGTTACCTACATATGC
B7: NRC3_wobSeed99_DR4_G27A_o1 (dsDNA)
DNA 1: GCTCTCGGAGGACACGAAAGGTCAGAACTCGACATCGCGATTGACAGCGTAGAATGAAGG
DNA 2: CCTTCATTCTACGCTGTCAATCGCGATGTCGAGTTCTGACCTTTCGTGTCCTCCGAGAGC
B8: NRC3_wobSeed93_DR3_A8G_o1 (dsDNA)
DNA 1: GCAGTCAGAGTTCATCTAGGTAACGTAAGATATGCTGCGATTGACAGCGTAGAATGAAGG
DNA 2: CCTTCATTCTACGCTGTCAATCGCAGCATATCTTACGTTACCTAGATGAACTCTGACTGC
B9: NRC3_wobSeed93_DR3_A18T_o1 (dsDNA)
DNA 1: B8 DNA 1 with G8A, A18T
DNA 2: B8 DNA 2 with T43A, C53T
B10: NRC3_wobSeed136_DR5_T27A_o1 (dsDNA)
DNA 1: GCTAGCCTAGGTCATTCAGGGGCCAGAATAGAAAGCGCGATTGACAGCGTAGAATGAAGG
DNA 2: CCTTCATTCTACGCTGTCAATCGCGCTTTCTATTCTGGCCCCTGAATGACCTAGGCTAGC
B11: NRC3_wobSeed58_DR2_A22T_o1 (dsDNA)
DNA 1: GCATCGAAAGGTCGTGAGGTGTGTATACAGAAAGGCGCGATTGACAGCGTAGAATGAAGG
DNA 2: CCTTCATTCTACGCTGTCAATCGCGCCTTTCTGTATACACACCTCACGACCTTTCGATGC
B12: NRC3_wobSeed5_DR0_T19A_o1 (dsDNA)
DNA 1: GCCCTTACGGGTCAAGGTAATAGCACGGGTGGTACGGCGATTGACAGCGTAGAATGAAGG
DNA 2: CCTTCATTCTACGCTGTCAATCGCCGTACCACCCGTGCTATTACCTTGACCCGTAAGGGC
B13: NRC3_wobSeed43_DR1_C8A_o1 (dsDNA)
DNA 1: GCCCAGAAAGGTGAAAGGTAACTCAGTCTGGTACGCGCGATTGACAGCGTAGAATGAAGG
DNA 2: CCTTCATTCTACGCTGTCAATCGCGCGTACCAGACTGAGTTACCTTTCACCTTTCTGGGC
B14: NRC3_wobSeed47_DR1_T18G_o1 (dsDNA)
DNA 1: GCGGAACGAGGGCAAAGGTGATAGCATCTGTCGACGGCGATTGACAGCGTAGAATGAAGG
DNA 2: CCTTCATTCTACGCTGTCAATCGCCGTCGACAGATGCTATCACCTTTGCCCTCGTTCCGC
B15: NRC3_wobSeed138_DR5_T5C_o1 (dsDNA)
DNA 1: GCGACACAGGGTCAGCTAGAGGCCAGAGTATGGAAAGCGATTGACAGCGTAGAATGAAGG
DNA 2: CCTTCATTCTACGCTGTCAATCGCTTTCCATACTCTGGCCTCTAGCTGACCCTGTGTCGC
B16: NRC3_wobSeed138_DR5_A6C_o1 (dsDNA)
DNA 1: B15 DNA 1 with C5T, A6C
DNA 2: B15 DNA 2 with T55G, G56A
B17: NRC3_wobSeed117_DR4_G26T_o1 (dsDNA)
DNA 1: GCCGTCAAAGTTCAACTAAGGTAACTTAAAGCACGCGCGATTGACAGCGTAGAATGAAGG
DNA 2: CCTTCATTCTACGCTGTCAATCGCGCGTGCTTTAAGTTACCTTAGTTGAACTTTGACGGC
B18: NRC3_wobSeed117_DR4_G20T_o1 (dsDNA)
DNA 1: B17 DNA 1 with G20T, T26G
DNA 2: B17 DNA 2 with A35C, C41A
B19: NRC3_wobSeed40_DR1_T15C_o1 (dsDNA)
DNA 1: GCTAGCCTAGGTCACGGGCCAGTATACCACGCGAACGCGATTGACAGCGTAGAATGAAGG
DNA 2: CCTTCATTCTACGCTGTCAATCGCGTTCGCGTGGTATACTGGCCCGTGACCTAGGCTAGC
B20: NRC3_wobSeed40_DR1_A24T_o1 (dsDNA)
DNA 1: B19 DNA 1 with C15T, A24T
DNA 2: B19 DNA 2 with T37A, G46A
B21: NRC3_wobSeed6_DR0_T22C_o1 (dsDNA)
DNA 1: GCCCTAGCAGGCCAGGGTCACCCAAGCATTTCGCTTGCGATTGACAGCGTAGAATGAAGG
DNA 2: CCTTCATTCTACGCTGTCAATCGCAAGCGAAATGCTTGGGTGACCCTGGCCTGCTAGGGC
B22: NRC3_wobSeed82_DR3_G20T_o1 (dsDNA)
DNA 1: GCATCGAAAGGTCGACGAGTTGAGTATACACCGTTTGCGATTGACAGCGTAGAATGAAGG
DNA 2: CCTTCATTCTACGCTGTCAATCGCAAACGGTGTATACTCAACTCGTCGACCTTTCGATGC
B23: NRC3_wobSeed36_DR1_T25C_o1 (dsDNA)
DNA 1: GCCCGACTGGGGCAAAGGTTACCACACTCAGTACGAGCGATTGACAGCGTAGAATGAAGG
DNA 2: CCTTCATTCTACGCTGTCAATCGCTCGTACTGAGTGTGGTAACCTTTGCCCCAGTCGGGC
B24: NRC3_wobSeed66_DR2_A22C_o1 (dsDNA)
DNA 1: GCAATACAGGGTCACTAGGCCCGAGTAGGTACGAATGCGATTGACAGCGTAGAATGAAGG
DNA 2: CCTTCATTCTACGCTGTCAATCGCATTCGTACCTACTCGGGCCTAGTGACCCTGTATTGC
B25: NRC3_wobSeed89_DR3_C22T_o1 (dsDNA)
DNA 1: GCCTATGTAGGTTAAGGGGGTTATTCAGTTTGAAAGGCGATTGACAGCGTAGAATGAAGG
DNA 2: CCTTCATTCTACGCTGTCAATCGCCTTTCAAACTGAATAACCCCCTTAACCTACATAGGC
B26: NRC3_wobSeed130_DR5_T15A_o1 (dsDNA)
DNA 1: GCCTCGAAAGGTCGAGCTCAGGTGAGTATACCAAACGCGATTGACAGCGTAGAATGAAGG
DNA 2: CCTTCATTCTACGCTGTCAATCGCGTTTGGTATACTCACCTGAGCTCGACCTTTCGAGGC
B27: NRC3_wobSeed73_DR3_A23G_o1 (dsDNA)
DNA 1: GCCAAACTAGGTCACAGAGGTCGAAGTCCGTGCGTAGCGATTGACAGCGTAGAATGAAGG
DNA 2: CCTTCATTCTACGCTGTCAATCGCTACGCACGGACTTCGACCTCTGTGACCTAGTTTGGC
B28: NRC3_wobSeed142_DR5_G13T_o1 (dsDNA)
DNA 1: GCATACCAAGGTTATCGTGAGGTCGTTGATACTAACGCGATTGACAGCGTAGAATGAAGG
DNA 2: CCTTCATTCTACGCTGTCAATCGCGTTAGTATCAACGACCTCACGATAACCTTGGTATGC
B29: NRC3_wobSeed2_DR0_T12C_o1 (dsDNA)
DNA 1: GCCCTAGTTGGCCAAGGTCACACACGCTATAGGTACGCGATTGACAGCGTAGAATGAAGG
DNA 2: CCTTCATTCTACGCTGTCAATCGCGTACCTATAGCGTGTGTGACCTTGGCCAACTAGGGC
B30: NRC3_wobSeed125_DR5_A7G_o1 (dsDNA)
DNA 1: GCCCTTGCGGGTCACTGACAGGTTATAGCATTTGGAGCGATTGACAGCGTAGAATGAAGG
DNA 2: CCTTCATTCTACGCTGTCAATCGCTCCAAATGCTATAACCTGTCAGTGACCCGCAAGGGC
B31: NRC3_wobSeed85_DR3_G17T_o1 (dsDNA)
DNA 1: GCCGTCCAAGGTCAGATAGGTCAGTGAATGCCGAGTGCGATTGACAGCGTAGAATGAAGG
DNA 2: CCTTCATTCTACGCTGTCAATCGCACTCGGCATTCACTGACCTATCTGACCTTGGACGGC
B32: NRC3_wobSeed10_DR0_G6C_o1 (dsDNA)
DNA 1: GCATCCAAAGGTCGAGGTGAGTATAGAGAAAGGGAAGCGATTGACAGCGTAGAATGAAGG
DNA 2: CCTTCATTCTACGCTGTCAATCGCTTCCCTTTCTCTATACTCACCTCGACCTTTGGATGC
B33: NRC3_wobSeed32_DR1_A25C_o1 (dsDNA)
DNA 1: GCTCTTGTAGATCAAAGGTTAAGACAGCCGAAGCCTGCGATTGACAGCGTAGAATGAAGG
DNA 2: CCTTCATTCTACGCTGTCAATCGCAGGCTTCGGCTGTCTTAACCTTTGATCTACAAGAGC

Biological target: RARa:RXRa (Homo sapiens, UniProt P10276;P19793 full;full)
Assay: no ligand; PBM; 270 nM : 90 nM RXRa; PBS pH 7.4, 2% milk, 0.02% Triton X-100, 1 mM DTT, BSA, 0.4 mg/ml salmon testes DNA
Settings: tags: His kept;His cleaved; copies: 1;1; label: surface-attached array probe
Summary of the method: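 The probes on custom Agilent 4×180K protein-binding microarrays were double-stranded, with 34-nt variable regions bearing direct-repeat seeds, single-nucleotide variants, half-site ablations and random human genomic background sequences. Incubation lasted 1 h with ligand-free nuclear receptor dimers in PBS pH 7.4, 2% milk, 0.02% Triton X-100, 1 mM DTT, 0.2 mg/mL BSA and 0.4 mg/ml salmon testes DNA. Antibodies against each partner (one per run) detected bound dimers, and fluorescence scans were regression-normalized. Binding z-scores take the random background probes as reference.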

RARa:RXRa, sequence (P10276 whole entry, chain 1 of 2): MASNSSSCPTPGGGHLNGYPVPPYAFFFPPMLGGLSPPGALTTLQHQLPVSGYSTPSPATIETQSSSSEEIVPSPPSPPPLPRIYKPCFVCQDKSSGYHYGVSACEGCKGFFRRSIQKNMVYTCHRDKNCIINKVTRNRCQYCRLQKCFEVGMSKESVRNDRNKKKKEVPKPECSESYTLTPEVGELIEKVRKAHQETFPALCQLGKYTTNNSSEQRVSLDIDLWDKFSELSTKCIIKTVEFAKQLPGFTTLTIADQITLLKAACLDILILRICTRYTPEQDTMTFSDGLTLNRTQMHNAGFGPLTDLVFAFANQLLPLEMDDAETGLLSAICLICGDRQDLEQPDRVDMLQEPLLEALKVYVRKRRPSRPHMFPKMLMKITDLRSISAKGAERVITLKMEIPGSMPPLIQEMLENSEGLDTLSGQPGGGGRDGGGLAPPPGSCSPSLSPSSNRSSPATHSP
RARa:RXRa, sequence (P19793 whole entry, chain 2 of 2): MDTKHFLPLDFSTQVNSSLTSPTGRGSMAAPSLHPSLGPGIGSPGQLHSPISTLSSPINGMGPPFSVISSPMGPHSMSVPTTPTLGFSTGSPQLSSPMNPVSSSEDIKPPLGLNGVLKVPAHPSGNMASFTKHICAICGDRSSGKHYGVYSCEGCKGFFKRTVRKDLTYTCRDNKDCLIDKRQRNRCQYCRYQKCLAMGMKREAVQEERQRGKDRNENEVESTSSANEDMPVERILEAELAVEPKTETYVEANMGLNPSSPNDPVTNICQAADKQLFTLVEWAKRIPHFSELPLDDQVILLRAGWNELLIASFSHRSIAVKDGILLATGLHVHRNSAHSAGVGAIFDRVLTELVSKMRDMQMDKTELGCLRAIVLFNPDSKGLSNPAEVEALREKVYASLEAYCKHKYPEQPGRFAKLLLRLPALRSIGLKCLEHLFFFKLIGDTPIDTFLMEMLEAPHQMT

| Binder | binding signal |
| --- | --- |
| B1 | 3.12 PBM z-score against 500 random probes |
| B2 | 3.19 PBM z-score against 500 random probes |
| B3 | 0.47 PBM z-score against 500 random probes |
| B4 | 4.31 PBM z-score against 500 random probes |
| B5 | 3.41 PBM z-score against 500 random probes |
| B6 | 3.23 PBM z-score against 500 random probes |
| B7 | 4.35 PBM z-score against 500 random probes |
| B8 | 3.62 PBM z-score against 500 random probes |
| B9 | 3.45 PBM z-score against 500 random probes |
| B10 | 3.51 PBM z-score against 500 random probes |
| B11 | 4.09 PBM z-score against 500 random probes |
| B12 | 3.77 PBM z-score against 500 random probes |
| B13 | 3.8 PBM z-score against 500 random probes |
| B14 | 3.09 PBM z-score against 500 random probes |
| B15 | 4.25 PBM z-score against 500 random probes |
| B16 | 4.15 PBM z-score against 500 random probes |
| B17 | 4.28 PBM z-score against 500 random probes |

| Binder | binding signal |
| --- | --- |
| B18 | 4.13 PBM z-score against 500 random probes |
| B19 | 3.59 PBM z-score against 500 random probes |
| B20 | 3.16 PBM z-score against 500 random probes |
| B21 | 3.89 PBM z-score against 500 random probes |
| B22 | 3 PBM z-score against 500 random probes |
| B23 | 3.7 PBM z-score against 500 random probes |
| B24 | 3.99 PBM z-score against 500 random probes |
| B25 | 3.33 PBM z-score against 500 random probes |
| B26 | 3.92 PBM z-score against 500 random probes |
| B27 | 4.06 PBM z-score against 500 random probes |
| B28 | 3.65 PBM z-score against 500 random probes |
| B29 | 3.86 PBM z-score against 500 random probes |
| B30 | 4.21 PBM z-score against 500 random probes |
| B31 | 4.18 PBM z-score against 500 random probes |
| B32 | 3.47 PBM z-score against 500 random probes |
| B33 | 3.05 PBM z-score against 500 random probes |
